Results taken from patent US20170296650A1 (Novartis, published 2017).

What was measured:
[1] = target: T1, hCMV glycoprotein B (gB; HEK293T transfectant) (hCMV, UniProt P06473 32-906); assay: cell-based or functional assay
[2] = target: hCMV gB E361K + D362N (virus selected with 7H3 in fibroblasts) (hCMV); assay: cell-based or functional assay
[3] = target: hCMV gB E381 deletion (virus selected with 7H3 in epithelial cells) (hCMV); assay: cell-based or functional assay
[4] = target: T1, hCMV glycoprotein B (gB; HEK293T …); assay: cell-based or functional assay; remark: listed apart in the source
[5] = target: T1, hCMV glycoprotein B (gB; HEK293T …); assay: cell-based or functional assay; remark: listed apart in the source
[6] = target: T1, hCMV glycoprotein B (gB; HEK293T …); assay: cell-based or functional assay; remark: listed apart in the source
[7] = target: T1, hCMV glycoprotein B (gB; HEK293T …); assay: cell-based or functional assay; remark: listed apart in the source
[8] = target: T1, hCMV glycoprotein B (gB; HEK293T …); assay: cell-based or functional assay; remark: listed apart in the source
[9] = target: T1, hCMV glycoprotein B (gB; HEK293T …); assay: cell competition; competitor 4H9-biotin
[10] = target: T1, hCMV glycoprotein B (gB; HEK293T …); assay: cell competition; competitor 5F1-biotin
[11] = target: T1, hCMV glycoprotein B (gB; HEK293T …); assay: cell competition; competitor 6B4-biotin
[12] = target: T1, hCMV glycoprotein B (gB; HEK293T …); assay: cell competition; competitor 7H3-biotin
[13] = target: T1, hCMV glycoprotein B (gB; HEK293T …); assay: cell competition; competitor 10C6-biotin
[14] = target: T1, hCMV glycoprotein B (gB; HEK293T …); assay: cell competition; competitor 2B11-biotin
[15] = target: T2, soluble gB ectodomain expressed in a mammalian cell line (hCMV, UniProt P06473 32-750); assay: ELISA, soluble gB ectodomain; ELISA on soluble gB ectodomain (4I22 was measured by Biacore on the 5-member complex)
T2 construct: extracellular domain

[16] = target: T3, hCMV gH + gL + UL128 + UL130 + UL131A (5-member complex; HEK293T co-transfectant) (hCMV, UniProt P12824 24-743; P16832 31-278; P16837 1-171; P16772 1-214); assay: cell-based or functional assay
[17] = target: hCMV UL130 Q191K (virus selected with 4I22) (hCMV); assay: cell-based or functional assay
[18] = target: hCMV UL130 W179R (virus selected with 4I22) (hCMV); assay: cell-based or functional assay
[19] = target: T4, hCMV UL130 + UL131A (HEK293T co-transfectant) (hCMV, UniProt P16772 1-214); assay: cell-based or functional assay
[20] = target: T4, hCMV UL130 + UL131A (HEK293T …); assay: cell-based or functional assay; remark: listed apart in the source
[21] = target: T3, hCMV gH + gL + UL128 + UL130 + UL131A …; assay: cell-based or functional assay; remark: listed apart in the source
[22] = target: T3, hCMV gH + gL + UL128 + UL130 + UL131A …; assay: cell-based or functional assay; remark: listed apart in the source
[23] = target: soluble 5-member complex (gH, gL, UL128, UL130, UL131A) (hCMV, UniProt P12824 24-716; P16832 31-278; P16837 28-171; P16772 26-214); assay: Biacore SPR, soluble 5-member complex
[24] = target: T3, hCMV gH + gL + UL128 + UL130 + UL131A …; assay: cell competition; competitor 2F4-biotin
[25] = target: T3, hCMV gH + gL + UL128 + UL130 + UL131A …; assay: cell competition; competitor 5A2-biotin
[26] = target: T3, hCMV gH + gL + UL128 + UL130 + UL131A …; assay: cell competition; competitor 10F7-biotin
[27] = target: T3, hCMV gH + gL + UL128 + UL130 + UL131A …; assay: cell competition; competitor 1F11-biotin
[28] = target: T3, hCMV gH + gL + UL128 + UL130 + UL131A …; assay: cell competition; competitor 4I22-biotin
[29] = target: T3, hCMV gH + gL + UL128 + UL130 + UL131A …; assay: cell competition; competitor 4N10-biotin
[30] = target: T3, hCMV gH + gL + UL128 + UL130 + UL131A …; assay: cell competition; competitor 2C12-biotin
[31] = target: T3, hCMV gH + gL + UL128 + UL130 + UL131A …; assay: cell competition; competitor 8I21-biotin
[32] = target: T3, hCMV gH + gL + UL128 + UL130 + UL131A …; assay: cell competition; competitor 8J16-biotin

B1: 7H3 (antibody, V domains shown)
VH: QVQLVQSGAEVKNPGASVKVSCKASGYTFTDYYIHWVRQAPGQGLEWMGWFNPNSGGTNFVQNFQGRVTMTRDTSISTAYMELSRLRSDDTAMYYCAKDSAKTASAYYGLNFFYYGMDVWGQGTTVTVSS
VL: QSVLSQPPSASGTPGQRVTISCSGSSSNIGKNYVYWYQQVPGTAPKLLMFKNNQRPSGVPDRFSGSKSGTSASLAISGLRSEDEADYYCSAWDGSLSRPLFGGGTKVTVL
notes: fully human IgG1 with unaltered Fc; also called 7H3-biotin; LJP538
Which results are given for B1?
EC50 inhibition of cell-cell fusion [1]: 4.77 µg/mL; fold increase in neutralization EC50 of escape virus [2]: > 41 fold; fold decrease in susceptibility of escape virus [3]: 22 fold; 50% neutralization VR1814, ARPE [4]: > 2 µg/mL; 50% neutralization VR1814, MRC-9 [4]: ≤ 2 µg/mL; 90% neutralization VR1814, ARPE [5]: 0.6 µg/mL; 90% neutralization VR1814, MRC-9 [5]: 3 µg/mL; 50% neutralization VR1814, BM-MSC [6]: 2 µg/mL; 50% neutralization VR1814, Mo-DC [6]: 0.06 µg/mL; neutralization of ARPE infection, isolate TM-20749 [7]: 4.36 µg/mL; neutralization of ARPE infection, isolate TM-31354 [7]: 1.42 µg/mL; neutralization of ARPE infection, isolate TM-E5271 [7]: 0.17 µg/mL; neutralization of ARPE infection, isolate TM-E9361 [7]: 0.33 µg/mL; neutralization of ARPE infection, isolate TM-E14953 [7]: 1.09 µg/mL; neutralization of ARPE infection, isolate TM-E19664 [7]: 0.26 µg/mL; neutralization of ARPE infection, isolate TM-E20744 [7]: 1.37 µg/mL; neutralization of ARPE infection, isolate TM-E28175 [7]: 0.24 µg/mL; neutralization of ARPE infection, isolate TM-E28257 [7]: 1.16 µg/mL; EC90 neutralization HUVEC, isolate TM-20749 [8]: 1.18 µg/mL; EC90 neutralization HUVEC, isolate TM-31354 [8]: 2.2 µg/mL; EC90 neutralization HUVEC, isolate TM-E5271 [8]: 0.19 µg/mL; EC90 neutralization HUVEC, isolate TM-E9361 [8]: 0.29 µg/mL; EC90 neutralization HUVEC, isolate TM-E14953 [8]: 0.12 µg/mL; EC90 neutralization HUVEC, isolate TM-E19664 [8]: 0.31 µg/mL; EC90 neutralization HUVEC, isolate TM-E20744 [8]: 0.39 µg/mL; EC90 neutralization HUVEC, isolate TM-E28175 [8]: 0.28 µg/mL; EC90 neutralization HUVEC, isolate TM-E28257 [8]: 1.02 µg/mL; Inhibition of binding (%) [9]: 0%; Inhibition of binding (%) [10]: 0%; Inhibition of binding (%) [11]: 0%; Inhibition of binding (%) [12]: 100%; Inhibition of binding (%) [13]: 0%; Inhibition of binding (%) [14]: 0%; Kd [15]: 0.29 nM

B2: 4I22 (antibody, human IgG1, V domains shown)
VH: QVQLVESGGGVVQPGRSLRLSCVASGFTFSSYAMHWVRQAPGKGLEWVAVISYDGDNKFYADSVKGRFRISRDTSKNTLYLEMNSLRAADTAIYYCAREELVGLMPPYYNYGLDVWGQGTTVTVSS
VL: QSVLTQPPSVSAAPGQKVTISCSGSNSNIGNNYVSWYQQLPGRAPKLLIYDNDHRPSGIPDRFSGSKSGTSATLVITGLQTGDEADYYCETWDTSLSAAVVFGGGTKLTVL
notes: fully human IgG1 with unaltered Fc; also called 4I22-biotin; 4122
Which results are given for B2?
EC50 inhibition of cell-cell fusion [16]: 0.076 µg/mL; fold decrease in susceptibility of escape virus [17]: > 50000 fold; fold decrease in susceptibility of escape virus [18]: > 50000 fold; 50% neutralization VR1814, ARPE [19]: < 0.01 µg/mL; 50% neutralization VR1814, MRC-9 [19]: > 2 µg/mL; 90% neutralization VR1814, ARPE [20]: 0.0015 µg/mL; 90% neutralization VR1814, MRC-9 [20]: > 10 µg/mL; neutralization of ARPE infection, isolate TM-20749 [21]: 0.01 µg/mL; neutralization of ARPE infection, isolate TM-31354 [21]: 0.028 µg/mL; neutralization of ARPE infection, isolate TM-E5271 [21]: 0.01 µg/mL; neutralization of ARPE infection, isolate TM-E9361 [21]: 0.002 µg/mL; neutralization of ARPE infection, isolate TM-E14953 [21]: 0.012 µg/mL; neutralization of ARPE infection, isolate TM-E19664 [21]: 0.016 µg/mL; neutralization of ARPE infection, isolate TM-E20744 [21]: 0.01 µg/mL; neutralization of ARPE infection, isolate TM-E28175 [21]: 0.006 µg/mL; neutralization of ARPE infection, isolate TM-E28257 [21]: 0.009 µg/mL; EC90 neutralization HUVEC, isolate TM-20749 [22]: 0.011 µg/mL; EC90 neutralization HUVEC, isolate TM-31354 [22]: 0.012 µg/mL; EC90 neutralization HUVEC, isolate TM-E5271 [22]: 1 ng/mL; EC90 neutralization HUVEC, isolate TM-E9361 [22]: 0.016 µg/mL; EC90 neutralization HUVEC, isolate TM-E14953 [22]: 0.012 µg/mL; EC90 neutralization HUVEC, isolate TM-E19664 [22]: 0.013 µg/mL; EC90 neutralization HUVEC, isolate TM-E20744 [22]: 0.02 µg/mL; EC90 neutralization HUVEC, isolate TM-E28175 [22]: 9 ng/mL; EC90 neutralization HUVEC, isolate TM-E28257 [22]: 1 ng/mL; Kd [23]: 0.31 nM; Inhibition of binding (%) [24]: 100%; Inhibition of binding (%) [25]: 0%; Inhibition of binding (%) [26]: 100%; Inhibition of binding (%) [27]: 100%; Inhibition of binding (%) [28]: 100%; Inhibition of binding (%) [29]: 0%; Inhibition of binding (%) [30]: 0%; Inhibition of binding (%) [31]: 0%; Inhibition of binding (%) [32]: 0%
